For the data set, the system named is tau (substrate in the in vitro phosphorylation assay of FIG. 1A).

Take “PKCζ (kinase in the in vitro phosphorylation assay of FIG. 1A)”: the “incorporation of radioactive phosphate into tau (autoradiogram)” value is reported as “when tau is incubated with PKCζ phosphate is incorporated into tau”.
